The text below walks through data of patent publication US20250084172A1.

Where a chain is given by its changes, count along the chain named.

The assay addresses mutagenized ULBP6 phage library (pool of ULBP6 mutants displayed on M13 phage). Put plainly: plate panning; antibody coated at 5 ug/mL, eluted phage titered against PBS-coated background wells.

B1: humanized 7B3 (h7B3), Fc version not stated (antibody, V domains shown)
VH: EVQLVESGGGLVQPGGSLRLSCAASGFTFSTYGFHWVRQAPGKGLEWVAYISSNSGTIDYADTVKGRFTISRDNAKNSLYLQMNSLRAEDTAVYYCARQGYGFDNWGQGTTVTVSS
VL: DIQLTQSPSSLSASVGDRVTITCSASSRVSYMNWYQQKPGKSPKIWVYGISNLASGVPSRFSGSGSGTDFTFTISSLQPEDIATYYCQQRSSHPLTFGGGTKVEIK
B1: the Phage enrichment was determined as 75 fold.

B2: humanized 8E11 (h8E11), Fc version not stated (antibody, V domains shown)
VH: B1 VH with S30R, F34M, N54G, A97T, G100T, Y101G, G102A, F103M, N105Y, T111L
VL: EIVLTQSPATLSLSPGERATLSCSASSSVSYMNWYQQKPGQSPRLWIYGISNLASGVPARFSGSGSGTDFTLTISSLEPEDFAVYYCQQRSSHPLTFGGGTKVEIK
In turn, B2 yielded a Phage enrichment of 145 fold.

B3: humanized 6E1 (h6E1), Fc version not stated (antibody, V domains shown)
VH: EVQLVQSGAEVKKPGASVKVSCKASGYTFTNYWMHWMRQAPGQGLEWLGRIHPSDSDTNYNQKFKGRATLTVDKSISTAYMELSRLRSDDTAVYYCAIEGTGKGYFDVWGRGTLVTVSS
VL: DIQMTQSPSSLSASVGDRVTITCKASQDIYSYLSWFQQKPGKSPKTLIYRANRLVDGVPSRFSGSGSGQDFTLTISSLQPEDFATYYCLHYDEFPLTFGGGTKVEIK
B3 gave a Phage enrichment of 220 fold.
